Measured values reported in patent EP0866131A2.

Target: human Fas antigen on HPB-ALL cells (human) (UniProt P25445)
Assay: cell-based or functional assay

Chain of UniProt P25445 (P25445 26-335): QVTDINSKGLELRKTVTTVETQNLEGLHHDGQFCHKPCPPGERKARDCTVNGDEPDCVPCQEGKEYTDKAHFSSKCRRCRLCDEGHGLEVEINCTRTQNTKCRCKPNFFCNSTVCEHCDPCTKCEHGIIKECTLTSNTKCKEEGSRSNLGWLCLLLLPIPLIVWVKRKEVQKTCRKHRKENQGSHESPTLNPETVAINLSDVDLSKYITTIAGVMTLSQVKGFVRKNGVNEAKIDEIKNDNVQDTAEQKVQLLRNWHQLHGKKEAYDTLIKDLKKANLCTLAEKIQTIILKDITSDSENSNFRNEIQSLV

Substance: mouse anti-human Fas monoclonal antibody CH11
- ED50 (ng/ml), cytotoxic activity on HPB-ALL cells: 10.7 ng/mL
